Laboratory results from US20250388683A1 (VETOQUINOL, published 2025).
Where two headings read alike, the source gives them in different places.

B1: scFv-VTQ2101-LHλcap-Fc (scFv-VTQ2101-LHλcap-GS18-Canine IgG2B-LALAPG-Fc) (Fc fusion)
scFv: RIVMTQSPGSLAGSVGESVSINCKSSQSVTNDLTWYQQKPGEAPKVLITYASQRYTGVPARFSGSGYGTDFTLTINNLQAEDVGDYFCQQDYASPFTFGGGTKLTVLGGSTSGGGSGGGSGGGGSSEVTLQESGPGLVKPSQTLSLTCVASGFSIKSSFIHWLRQRPGRGLEWIGRIDPAFGATEYNPAFQGRFSITADTAKNQASLQLSSMTTEDSAVYYCARYHYAASHFDAWGQGTLVTVSSPKRENGRVPRPPDCPKCPAPEAAGGPSVFIFPPKPKDTLLIARTPEVTCVVVDLDPEDPEVQISWFVDGKQMQTAKTQPREEQFNGTYRVVSVLPIGHQDWLKGKQFTCKVNNKALGSPIERTISKARGQAHQPSVYVLPPSREELSKNTVSLTCLIKDFFPPDIDVEWQSNGQQEPESKYRTTPPQLDEDGSYFLYSKLSVDKSRWQRGDTFICAVMHEALHNHYTQESLSHSPG
B2: scFab-Fc-VTQ2101 (scFab-VTQ2101-HLλcap-GS18-Canine IgG2B-LALAPG-Fc) (Fc fusion)
chain: RIVMTQSPGSLAGSVGESVSINCKSSQSVTNDLTWYQQKPGEAPKVLITYASQRYTGVPARFSGSGYGTDFTLTINNLQAEDVGDYFCQQDYASPFTFGQGTKLEIKRNDAQPAVYLFQPSPDQLHTGSASVVCLLNSFYPKDINVKWKVDGVIQDTGIQESVTEQDKDSTYSLSSTLTMSSTEYLSHELYSCEITHKSLPSTLIKSFQRSECGGSSGSGSGSTGTSSSGTGTSAGTTGTSASTSGSGSGGGGGSGGGGSAGGEVTLQESGPGLVKPSQTLSLTCVASGFSIKSSFIHWLRQRPGRGLEWIGRIDPAFGATEYNPAFQGRFSITADTAKNQASLQLSSMTTEDSAVYYCARYHYAASHFDAWGQGTLVTVSSASTTAPSVFPLAPSCGSTSGSTVALACLVSGYFPEPVTVSWNSGSLTSGVHTFPSVLQSSGLYSLSSMVTVPSSRWPSETFTCNVAHPASKTKVDKPVPKRENGRVPRPPDCPKCPAPEAAGGPSVFIFPPKPKDTLLIARTPEVTCVVVDLDPEDPEVQISWFVDGKQMQTAKTQPREEQFNGTYRVVSVLPIGHQDWLKGKQFTCKVNNKALGSPIERTISKARGQAHQPSVYVLPPSREELSKNTVSLTCLIKDFFPPDIDVEWQSNGQQEPESKYRTTPPQLDEDGSYFLYSKLSVDKSRWQRGDTFICAVMHEALHNHYTQESLSHSPG
B3: scFv-HLλcap-Fc-VTQ2102 (scFv-VTQ2102-HLλcap-GS18-Canine IgG2B-LALAPG-Fc) (Fc fusion)
scFv: EVTLQESGPGLVKPSQTLSLTCVASGFSIKSSFIHWLRQRPGRGLEWIGRIDPAFGATEYNPAFQGRFSITADTAKNQASLQLSSMTTEDSAVYYCARYHYAASHFDAWGQGTLVTVSSGSTSGGGSGGGSGGGGSSRIVMTQSPGSLAGSVGESVSINCKSSQSVTNDLTWYQQKPGEAPKVLITYASQRYTGVPARFSGSGYGTDFTLTINNLQAEDVGDYFCQQDYASPFTFGGGTKLTVLGPKRENGRVPRPPDCPKCPAPEAAGGPSVFIFPPKPKDTLLIARTPEVTCVVVDLDPEDPEVQISWFVDGKQMQTAKTQPREEQFNGTYRVVSVLPIGHQDWLKGKQFTCKVNNKALGSPIERTISKARGQAHQPSVYVLPPSREELSKNTVSLTCLIKDFFPPDIDVEWQSNGQQEPESKYRTTPPQLDEDGSYFLYSKLSVDKSRWQRGDTFICAVMHEALHNHYTQESLSHSPG

Assays:
Experiment in all cases: cell-based or functional assay
[1] = molecular target: T1, canine IL-31RA expressed on HEK-Blue STAT3 canine IL-31R reporter cells (with canine OSMR) (canine)
[2] = molecular target: T1, canine IL-31RA expressed on HEK-Blue …; remark: listed apart in the source
[3] = molecular target: T1, canine IL-31RA expressed on HEK-Blue …; remark: listed apart in the source
[4] = molecular target: T1, canine IL-31RA expressed on HEK-Blue …; remark: listed apart in the source

Binder | IC50 (read off the curve); STAT3-SEAP reporter, canine IL-31 stimulation [1] [nM] | IC50 ratio (IC50 candidate/IC50 VTQ2101) [2] [ratio] | IC50 (read off the curve); STAT3-SEAP reporter, canine IL-31 stimulation [3] [nM] | IC50 (read off the curve); STAT3-SEAP reporter, canine IL-31 stimulation [4] [nM]
B1 | ~1 | 1.7 | – | –
B2 | – | 1.3 | ~0.8 | –
B3 | – | 1.5 | – | ~1
